± gives the standard deviation of the averaged measurements.
Experiments:
[1] = test system: hTERT-HMEC; test: percentage of EdU-negative (G0-arrested) nuclei per well, 72 h; higher = more G0 arrest; conditions: reference: sequence is the full UniProt precursor, the tested protein was the secreted form or ectodomain
[2] = test system: MCF7; test: as above; conditions: reference: sequence is the full UniProt precursor, the tested protein was the secreted form or ectodomain
[3] = protein concentration 0.0225 µM
[4] = protein concentration 0.0301575 µM
[5] = protein concentration 0.301575 µM
[6] = protein concentration 0.0182675 µM
[7] = protein concentration 0.182675 µM
[8] = protein concentration 0.01051 µM
[9] = protein concentration 0.1051 µM
[10] = protein concentration 0.0325714 µM
[11] = protein concentration 0.325714 µM
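Further: secreted proteins added to cultured cells, EdU pulse at the end, nuclei found by Hoechst imaging, EdU status from nuclear versus surrounding ring intensity ratio, PBS as neutral control.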

MLGQVVTLILLLLLKVYQGKGCQGSADHVVSISGVPLQLQPNSIQTKVDSIAWKKLLPSQNGFHHILKWENGSLPSNTSNDRFSFIVKNLSLLIKAAQQQDSGLYCLEVTSISGKVQTATFQVFVFESLLPDKVEKPRLQGQGKILDRGRCQVALSCLVSRDGNVSYAWYRGSKLIQTAGNLTYLDEEVDINGTHTYTCNVSNPVSWESHTLNLTQDCQNAHQEFRFWPFLVIIVILSALFLGTLACFCVWRRKRKEKQSETSPKEFLTIYEDVKDLKTRRNHEQEQTFPGGGSTIYSMIQSQSSAPTSQEPAYTLYSLIQPSRKSGSRKRNHSPSFNSTIYEVIGKSQPKAQNPARLSRKELENFDVYS [Q9BZW8]
percentage of EdU-negative [1, 3]: 5.21 ± 0.31%
percentage of EdU-negative ([1]; protein concentration 0.225 µM): 6.56 ± 1.1%
percentage of EdU-negative [2, 3]: 25.82 ± 0.11%
percentage of EdU-negative ([2]; protein concentration 0.225 µM): 26.1 ± 1.3%

MLGVLELLLLGAAWLAGPARGQNETEPIVLEGKCLVVCDSNPTSDPTGTALGISVRSGSAKVAFSAIRSTNHEPSEMSNRTMIIYFDQVLVNIGNNFDSERSTFIAPRKGIYSFNFHVVKVYNRQTIQVSLMLNGWPVISAFAGDQDVTREAASNGVLIQMEKGDRAYLKLERGNLMGGWKYSTFSGFLVFPL
percentage of EdU-negative [1, 3]: 5.16 ± 0.97%
percentage of EdU-negative ([1]; protein concentration 0.225 µM): 5.71 ± 0.24%
percentage of EdU-negative [2, 3]: 24.7 ± 1.6%
percentage of EdU-negative ([2]; protein concentration 0.225 µM): 24.9 ± 2.3%

MLHLLALFLHCLPLASGDYDICKSWVTTDEGPTWEFYACQPKVMRLKDYVKVKVEPSGITCGDPPERFCSHENPYLCSNECDASNPDLAHPPRLMFDKEEEGLATYWQSITWSRYPSPLEANITLSWNKTVELTDDVVMTFEYGRPTVMVLEKSLDNGRTWQPYQFYAEDCMEAFGMSARRARDMSSSSAHRVLCTEEYSRWAGSKKEKHVRFEVRDRFAIFAGPDLRNMDNLYTRLESAKGLKEFFTLTDLRMRLLRPALGGTYVQRENLYKYFYAISNIEVIGRCKCNLHANLCSMREGSLQCECEHNTTGPDCGKCKKNFRTRSWRAGSYLPLPHGSPNACATAGSFGNCECYGHSNRCSYIDFLNVVTCVSCKHNTRGQHCQHCRLGYYRNGSAELDDENVCIECNCNQIGSVHDRCNETGFCECREGAAGPKCDDCLPTHYWRQGCYPNVCDDDQLLCQNGGTCLQNQRCACPRGYTGVRCEQPRCDPADDDGGLDCDRAPGAAPRPATLLGCLLLLGLAARLGR [Q96CW9]
percentage of EdU-negative [1, 3]: 5.1 ± 0.37%
percentage of EdU-negative ([1]; protein concentration 0.225 µM): 5.79 ± 0.16%
percentage of EdU-negative [2, 3]: 28.5 ± 0.47%
percentage of EdU-negative ([2]; protein concentration 0.225 µM): 28.61 ± 0.091%

MLIFWTITLFLLGAAKGKEVCYEDLGCFSDTEPWGGTAIRPLKILPWSPEKIGTRFLLYTNENPNNFQILLLSDPSTIEASNFQMDRKTRFIIHGFIDKGDESWVTDMCKKLFEVEEVNCICVDWKKGSQATYTQAANNVRVVGAQVAQMLDILLTEYSYPPSKVHLIGHSLGAHVAGEAGSKTPGLSRITGLDPVEASFESTPEEVRLDPSDADFVDVIHTDAAPLIPFLGFGTNQQMGHLDFFPNGGESMPGCKKNALSQIVDLDGIWAGTRDFVACNHLRSYKYYLESILNPDGFAAYPCTSYKSFESDKCFPCPDQGCPQMGHYADKFAGRTSEEQQKFFLNTGEASNFARWRYGVSITLSGRTATGQIKVALFGNKGNTHQYSIFRGILKPGSTHSYEFDAKLDVGTIEKVKFLWNNNVINPTLPKVGATKITVQKGEEKTVYNFCSEDTVREDTLLTLTPC
percentage of EdU-negative [1, 4]: 5.42 ± 0.23%
percentage of EdU-negative [1, 5]: 5.14 ± 0.29%
percentage of EdU-negative [2, 4]: 25.8 ± 0.77%
percentage of EdU-negative [2, 5]: 26.6 ± 1.5%

MLKALFLTMLTLALVKSQDTEETITYTQCTDGYEWDPVRQQCKDIDECDIVPDACKGGMKCVNHYGGYLCLPKTAQIIVNNEQPQQETQPAEGTSGATTGVVAASSMATSGVLPGGGFVASAAAVAGPEMQTGRNNFVIRRNPADPQRIPSNPSHRIQCAAGYEQSEHNVCQDIDECTAGTHNCRADQVCINLRGSFACQCPPGYQKRGEQCVDIDECTIPPYCHQRCVNTPGSFYCQCSPGFQLAANNYTCVDINECDASNQCAQQCYNILGSFICQCNQGYELSSDRLNCEDIDECRTSSYLCQYQCVNEPGKFSCMCPQGYQVVRSRTCQDINECETTNECREDEMCWNYHGGFRCYPRNPCQDPYILTPENRCVCPVSNAMCRELPQSIVYKYMSIRSDRSVPSDIFQIQATTIYANTINTFRIKSGNENGEFYLRQTSPVSAMLVLVKSLSGPREHIVDLEMLTVSSIGTFRTSSVLRLTIIVGPFSF
percentage of EdU-negative [1, 6]: 4.75 ± 0.46%
percentage of EdU-negative [1, 7]: 15.7 ± 1.1%
percentage of EdU-negative [2, 6]: 28 ± 2.2%
percentage of EdU-negative [2, 7]: 29.1 ± 1.9%

MLKKPLSAVTWLCIFIVAFVSHPAWLQKLSKHKTPAQPQLKAANCCEEVKELKAQVANLSSLLSELNKKQERDWVSVVMQVMELESNSKRMESRLTDAESKYSEMNNQIDIMQLQAAQTVTQTSADAIYDCSSLYQKNYRISGVYKLPPDDFLGSPELEVFCDMETSGGGWTIIQRRKSGLVSFYRDWKQYKQGFGSIRGDFWLGNEHIHRLSRQPTRLRVEMEDWEGNLRYAEYSHFVLGNELNSYRLFLGNYTGNVGNDALQYHNNTAFSTKDKDNDNCLDKCAQLRKGGYWYNCCTDSNLNGVYYRLGEHNKHLDGITWYGWHGSTYSLKRVEMKIRPEDFKP
percentage of EdU-negative [1, 8]: 4.85 ± 0.3%
percentage of EdU-negative [1, 9]: 5.52 ± 0.31%
percentage of EdU-negative [2, 8]: 24.6 ± 2.7%
percentage of EdU-negative [2, 9]: 25.2 ± 0.9%

MLKPSLPFTSLLFLQLPLLGVGLNTTILTPNGNEDTTADFFLTTMPTDSLSVSTLPLPEVQCFVFNVEYMNCTWNSSSEPQPTNLTLHYWYKNSDNDKVQKCSHYLFSEEITSGCQLQKKEIHLYQTFVVQLQDPREPRRQATQMLKLQNLVIPWAPENLTLHKLSESQLELNWNNRFLNHCLEHLVQYRTDWDHSWTEQSVDYRHKFSLPSVDGQKRYTFRVRSRFNPLCGSAQHWSEWSHPIHWGSNTSKENPFLFALEAVVISVGSMGLIISLLCVYFWLERTMPRIPTLKNLEDLVTEYHGNFSAWSGVSKGLAESLQPDYSERLCLVSEIPPKGGALGEGPGASPCNQHSPYWAPPCYTLKPET
percentage of EdU-negative [1, 10]: 5.08 ± 0.64%
percentage of EdU-negative [1, 11]: 5.6 ± 1.3%
percentage of EdU-negative [2, 10]: 24.7 ± 0.8%
percentage of EdU-negative [2, 11]: 26.37 ± 0.19%

Source: the supplement of paper PMC11316812
